{"source": "patent US5962246A", "proteins": {"B1": {"name": "recombinant human dUTPase nuclear isoform DUT-N (Seq. ID No. 2), expressed in baculovirus/Sf21 insect cells (Homo sapiens) (protein)", "chain": "MPCSEETPAISPSKRARPAEVGGMQLRFARLSEHATAPTRGSARAAGYDLYSAYDYTIPPMEKAVVKTDIQIALPSGCYGRVAPRSGLAAKHFIDVGAGVIDEDYRGNVGVVLFNFGKEKFEVKKGDRIAQLICERIFYPEIEEVQALDDTERGSGGFGSTGKN"}}, "substrate": "O=c1ccn([C@H]2C[C@H](O)[C@@H](COP(=O)(O)OP(=O)(O)OP(=O)(O)O)O2)c(=O)[nH]1", "assay": "purified protein, by the assay type", "settings": "other: substrate dUTP, 20 mM Tris-HCl pH 7.5, 37° C., purified recombinant DUT-N"}
{"protein": "B1", "values": [{"measurement": "Km", "value": 2.5, "unit": "µM"}]}
